Measured values: the RNAGym collection of RNA variant scans (doi:10.1073/pnas.2313332121)

B1: TPR t1 (parent)
chain: GACCAAUCUGCCCUCAGAGCUCGAGAACAUCUUCGGAUGCAGAGGAGGCAGGCUUCGGUGGCGCGAUAGCGCCAACGUCCUCAACCUCCAAUGCAUCCCACCACAUGAUGAUGCCUGAAGAGCCUUGGUUUUUUG

Variants of: B1
Assay: polymerase ribozyme fitness, log enrichment relative to wild type (log ratio); higher = more active; in vitro selection for triplet polymerase activity
In short: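 For each subunit of a heterodimeric triplet polymerase ribozyme, a mutant library was built by PCR and transcribed, then taken through a single in vitro selection round in triplicate. Selection involved annealing to a biotinylated primer, the partner subunit and triplets, incubation frozen at −7 °C, gel excision of extended constructs, capture on streptavidin beads and RT-PCR. Genotypes were retained after Illumina sequencing of inputs and outputs only with ≥10 input reads and ≥1 read in each output. Fitness is defined as the logarithm of a genotype's enrichment relative to wild-type enrichment, using inverse-variance-weighted averages across replicates, with the logarithm taken to base 2.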

Compared with GACCAAUCUGGCCUCAGAGCUCGAGAACAUCUUCGGAUGCAGAGGAGGCAGGCUUCGGUGGCGCGAUAGCGCCAACGUCCUCAACCUCCAAUGCAUCCCACCACAUGAUGAUGCCUGAAGAACGUUGGUUUUUUG [C11G G122A C124G], GACCAAUCUGGCCUCAGAGCUCGAGAACAUCUUCGGAUGCAGAGGAGGCAGGCUUCGCUGGCGCGAUAGCGCCAACGUCCUCAACCUCCAAUGCAUACCACCAAAUGAUGAUGCCUGAAGAGCCUUGGUUUUUUG [C11G G58C C97A C104A] is lower in “polymerase ribozyme fitness (log ratio)” value: 1.83 for the first, -4.9 for the second.

Going from GACCAAUCUGGCCUCAGAGCUCGAGAACAUCUUCGGAUGCAGAGGAGGCAGGCUUCGGUGGCUCGAUAGCGCCAACGUCCUCAAUCCCCAAUGCAUCCCACCACAUGAUAAUGCCUGAAGAGCCUUGGUUUUUUG [C11G G63U C85U U87C G110A] to GACCAAUCUGGCCGUAGAGCUCGAGAACAUCUUCGGAUGCAGAGGCGGCAGGCUUCGGUGGCGCGAUAGCGCGAACGUCCUAAACCUCCAAUGCAUCCCACCACAUGAUGAUGCCUGAAGAGCCUUGGUUUUUUG [C11G U14G C15U A46C C73G C82A], the “polymerase ribozyme fitness (log ratio)” value falls from -2.67 to -4.14.

Compared with GACCAAUCUGGCCUCAGAGCUCGAGAACAUCUUCGGAUGCAGAGGAGGCAGGCUUCGGUGGCGCGAUAGCGCCAACGUCCUCAACCUCCAAUCCAUCCCACCACUUGAUGAUGCCUGAUGAGCCUUGGUUUUUUG [C11G G93C A105U A119U], GACCAAUCUGGCCUCAGAGCUCGAGAACAUCUUCGGAUGCAGAGGAGGCAGGCUUCGGUGGCGCGAUAGCGCCAACGUCCUCAACCUCCAAUGCAUCCCACCACAUGAUGAUGCCUGAAGAGCCUUGGUUUUUUU [C11G G135U] is higher in “polymerase ribozyme fitness (log ratio)” value: -3.55 for the first, -0.0424 for the second.

Going from GACCAAUCUGGCCUCAGAGCUCGAGAACAUCUUCGGAUGCAGAGGAAGCAGGCUUCGGUGGCGCGAUAGCGCCAACGUCCUCAACCUACAAUGCAUCCCACCACAUGAUGAUGCCUGAAGAGCCUUCGUUUUUUG [C11G G47A C88A G127C] to GACCAAUCUGGCCUCAGAGCUCGAGAACAUCUUCGGAUGCAGAGGAGGCAGGCUUCGGUUGCGCGAUAGCGCCAACGUCCUCAACCUCCAAUGCAUCCCACCACAUGAUGAUGCCUGAAGAGCCUUGGUUUUUUG [C11G G60U], the “polymerase ribozyme fitness (log ratio)” value rises from -2.42 to 0.25.

Compared with GACCAAUCUGGCCUCAGAGCUCGAGAACAUCUUCGGAUGCAGAGGAGGCAGGCUUCGGUAGCGCGAUAGCGCCAACGUCCUCAACCUCCAAUGCAUCCCACCACAUGAUGAUGCCUGAAGAGCCUUGGUUUUUUG [C11G G60A], GACCAAUCUGGCCUCAGAGCUCGAGAACAUCUUCGGAUGCAGAGGAGGCAGGCUUCGGUCGCGCGAUAGCGCCAACGUCCUCAACCUCCAAUGCAUCCCACCACAUGAUGAUGCCUGAAGAGCCUUGGUUUUUUG [C11G G60C] is lower in “polymerase ribozyme fitness (log ratio)” value: 0.811 for the first, -0.354 for the second.

Compared with GACCAAUCUGGCCUCAGAGCUCGAGAACAUCUUCGGAUGCAGAGGAGGCACGCUUCGGUGGCGCGAUAGCGCCAACGUCCUCAGCCUCCAAUGCAUCCCACCACAUGAUGAUGCCUGAAGAGCCUUGGUUCUUUG [C11G G51C A84G U131C], GACCAAUCUGGCCUCAGAGCUCGAGAACAUCUUCGGAUGCAGAGGAGGCAGGCUUCGGUGGCGCGAUAGCGCCAACGUCCUCAACCUCCAAUUCAUCCCACCACAUGAUGAUGCCUGAAGAGCCUUGGUUUUUUG [C11G G93U] is higher in “polymerase ribozyme fitness (log ratio)” value: -3.58 for the first, 0.289 for the second.

First: GACCAAUCUGGCCUCAGAGCUCGAGAACAUCUUCGGAUGCAGAGGAGGCAGGCUUCGGUGGCGCGAUAGCGCCAACGUCCUCAACCUCCAAUGCAUCCCACCACAUAAUGAUGCCUGAAGAGCCUUGGUUUUUUG [C11G G107A]
Second: GACCAAUCUGGCCUCAGAGCUCGAGAACAUCUUCGGAUGCAGAGGAGGCAGGCUUCGGUGUCGCGAUAGCGCCAACGUCCUCAACCUCCAAUGCAUCCCACCACAUGAUGAUGCCUGAAGAGCCUUGGUUUUUUG [C11G G61U]
The “polymerase ribozyme fitness (log ratio)” value of the first is lower: -4.44 for the first, 0.628 for the second.

GACCAAUCUGGCCUCAGAGCUCGAGAACAUCUUCGGAUGCAGAGGAGGCAGGCUUCAAUGGAACGAUAGCGCCAACGUCCUCAACCUCCAAUGCAUCCCACCACAUGAUGAUGCCUGAAGAGCCUUGGUUUUUUG [C11G G57A G58A C62A G63A] and GACCAAUCUGGCCUCAGAGCACGAGAACAUCUUCGGAUGCAGAGGAGGUAGGCUUCGGUGGCGCGAUAGCGCCAACGUCCUCAACCUCCAAUGCAUCCCACCACAUGAUGAUGCCUCAAGAGCCUUGGUUUUUUG [C11G U21A C49U G117C] are within 0.2 log units of each other in “polymerase ribozyme fitness (log ratio)” value: -3.98 for the first, -4.04 for the second.

Going from GACCAAUCUGGCCUCAGAGCUCGAGAACAUCUUCGGAUGCAGAGGAGGCAGGCUUCGGUGGCGCGAUAGCGCCAACGUCCUCAACCUCCAAUGCAUCCCACCACAUGAUGAUUCCUGAAGAGCCUUGUUUUUUUG [C11G G113U G128U] to GACCAAUCUGGCCUCAGAGCACGAGAACAUCUUCGGAUGCAGAGGAGGCAGGGUUCGGUGGCGCGAUAGCGCCAACGUCCUCAACCUCCAAUGCAUCCCACCACAUGAUGAUGACUGAAGAGCCUUGGUUUUUUG [C11G U21A C53G C114A], the “polymerase ribozyme fitness (log ratio)” value rises from -3.42 to 0.189.

First: GACCAAUCUGGCCUCAGAGCUCGAGAACAUCUUCGGAUGCAGAGGAGGCAAGGUUCGGUGGCGCGAUAGCGCCAACGUCCUCAACCUCCAAUGCAUCCCACCACAUGAUGAUGCCUGAAGAGCUUUGGUUGUUUG [C11G G51A C53G C124U U131G]
Second: GACCAAUCUGGCCUCAGAGCUCGAGAACAUCUUCGGAUGCAGAGAAGGCAGUCUUCGGUGGCGCGAUAGCGCCAACGUCCUCAACCUCCAAUGCAUCCCAACACAAGAUGAUGCCUGAAGUGCCUUGGUUUUUUG [C11G G45A G52U C101A U106A A121U]
The “polymerase ribozyme fitness (log ratio)” value of the first is lower: -1.71 for the first, 0.469 for the second.

For GACCAAUCUGGCCUCAGAGCUCGAGAACAUCUUCGGAUGCAGAGGAGGCAGCCUUCGGUGGCGCGAUAGCGCCAACGUCCUCAACCUCCAAUGCAUCCCACCACAUGAUGAUGCCUAAAGAGCCUUGGUUUUUUG [C11G G52C G117A], the “polymerase ribozyme fitness (log ratio)” value was -1.05.
